Assay results taken from article PMC3467086.

T1: NF90 dsRBDs (mouse, UniProt Q9Z1X4 380-590)
T1 sequence: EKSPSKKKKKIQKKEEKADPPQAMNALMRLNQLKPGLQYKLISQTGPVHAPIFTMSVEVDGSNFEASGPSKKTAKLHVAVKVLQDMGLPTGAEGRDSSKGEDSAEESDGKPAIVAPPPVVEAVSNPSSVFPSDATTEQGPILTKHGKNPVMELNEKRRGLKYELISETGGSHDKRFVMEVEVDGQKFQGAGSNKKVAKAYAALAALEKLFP

B1: ss17-A10 (ssRNA)
RNA: CCCCACCACCAUCACUUAAAAAAAAAA
B2: ss17-A10/Css17-U10 dsRNA (dsRNA)
RNA 1: CCCCACCACCAUCACUUAAAAAAAAAA
RNA 2: UUUUUUUUUUAAGUGAUGGUGGUGGGG

Tests used:
Experiment in all cases: EMSA
[1] = molecular target: NF90ΔC381 (DZF);NF45ΔN28 (DZF) (mouse;mouse, UniProt Q9Z1X4;Q9CXY6 1-380;29-390, |)
NF90 dsRBDs = molecular target: T1, NF90 dsRBDs
[2] = molecular target: NF90ΔC591 (DZF + both dsRBDs);NF45 (partner in long complex) (mouse;mouse, UniProt Q9Z1X4;Q9CXY6 1-590;29-390, |)
Sequence of NF90ΔC591 (DZF + both dsRBDs);NF45 (partner in long complex) (Q9CXY6 29-390, stated change not applied, one chain of several): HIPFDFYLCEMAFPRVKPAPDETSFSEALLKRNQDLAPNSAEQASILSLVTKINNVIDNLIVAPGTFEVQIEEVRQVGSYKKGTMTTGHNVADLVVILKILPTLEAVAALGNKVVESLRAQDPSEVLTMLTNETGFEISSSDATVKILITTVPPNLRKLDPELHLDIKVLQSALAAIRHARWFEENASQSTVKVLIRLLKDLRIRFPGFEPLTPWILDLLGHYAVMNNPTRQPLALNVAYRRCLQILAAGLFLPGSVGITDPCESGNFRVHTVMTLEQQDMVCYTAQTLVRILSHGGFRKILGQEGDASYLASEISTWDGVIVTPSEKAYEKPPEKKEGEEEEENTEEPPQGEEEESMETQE

Binder | binding result [1] | binding result (NF90 dsRBDs) | binding result [2]
B1 | no binding |  | 
B2 | no binding | binds | binds
